Among the data in patent publication US20230218743A1 are Kd, koff and kon values, retold here.

Assay [1] addresses RBD-SD1 (SARS-CoV-2), P0DTC2. As to conditions: remark: other sources report otherwise.
Assay [2] deals with RBD-SD1 (SARS-CoV-2), P0DTC2. Kind of assay: epitope analysis, FIG. 3B; exponent as printed. As to conditions: remark: other sources report otherwise.

Read-outs that look alike come from different tables or passages of the source.

B1: N-612-004 (antibody, V domains shown)
VH: EVQLVESGGGLVQPGGSLRLSCAASGFTFSSYYMHWVRQAPGKGLEWVSAISGSGGYTYYADSVKGRFTISRDNSKNTLYLQMNSLRAEDTAVYYCARDRDHAYDWGFDVWGQGTLVTVSS
VL: DIQMTQSPSSLSASVGDRVTITCQASQDISNYLNWYQQKPGKAPKLLIYDASNLETGVPSRFSGSGSGTDFTFTISSLQPEDIATYYCQQWADWPLTFGQGTKVEIK
Regarding B1, in assay [1], the Kd worked out at 2.95 nM, the koff came out at 0.000937 s⁻¹ and the kon was 317000 M⁻¹ s⁻¹. For the same molecule, the koff in assay [2] was 0.00034 s⁻¹.

Usually Kd stands for the constant that tells how readily two partners part at equilibrium. The low end stands for a tighter complex, the high end for a looser complex. One may read the koff as the first-order rate constant of dissociation. Higher therefore signals a short-lived complex. By kon is commonly meant the rate constant with which the complex forms. Read a low kon as slower complex formation.
